Experimental data taken from the DeepSol protein solubility set.

Experiment: soluble on expression in E. coli; label from the status in PepcDB or PDB records
For “MGSDKIHHHHHHMAKYLYGRRVKLVLLTPHESVTFDYKQTETHSMGIQFNVPFSDSSTPPTCTVTIMNLSAKHRKLFKKGYEVKLYAGYAEDGVGLLSAGVIRAISPFTSDGTNNTFSFTYREGQEYSKLLSSAEKANKKADEARKKKAKVIGKKAAAGLPKIKKHSALSFGKNTAASTIIRRIASDAGITLSKVYLAKPKKYKKGYAAHGKPITNIKAIAKACGSKVYYRRGSIVIDDLSKVKGHNEHILVTEHVKGRHGGTGLIQYPTTDSDSMAKHKTWTVTSLLRYQVSTGSVVTVENRFLKGTFRVKSGEHVCDDSAFTTAMEVYV”, the “soluble on expression in E. coli” value was “not soluble”.
With “MGSDKIHHHHHHSGEKKESASEKGVETVLPDTKNEVSVMTLKKQIFNHELVSNGKISARGMADLRFESGEVIAHIWVKNGDRVRKGQKLAELDKFKLDNQLSQSEDALKKSELELRDVLISQGYPADDISQVPEETMKLAKVKSGYDQSKSQYEMSKYNAEHATLTAPFDGVVANLFSKPYNLASTSDVFCTVIDMQGMEVDFTVLESELPLIKNGDKVVIKPYSDAATVHEGSISEINPLVDDKGMVKVKARVNGAGKLFSGMNVRVSVHRSLGEQLVIPKSAVVLRSGKQVVFTLKDGKMAQWNYIHTALENADSYSVADGLTEGDTVIVSGNINLAHEAPVTIIE” the “soluble on expression in E. coli” value was “not soluble”.
For “VSVITSEMKMELRMEGAVNGHKFVITGKGSGQPFEGIQNMDLTVIEGGPLPFAFDILTTVFDYGNRVFVKYPEEIVDYFKQSFPEGYSWERSMSYEDGGICLATNNITMKKDGSNCFVYEIRFDGVNFPANGPVMQRKTVKWEPSTEKMYVRDGVLKGDVNMALLLQGGGHYRCDFRTTYKAKKVVQLPDYHFVDHRIEITSHDKDYNKVKLYEHAKAHSGLPRLAK”, the “soluble on expression in E. coli” value was “soluble”.
For “MGSDKIHHHHHHISNNLANSSTIGYKTSNASFYSLVTGTGSTSNFTGAGVVASATQNVINQGVIVGTQNVTDLAVDGKGMFIVTDRSGSNELYYTRAGDFYPNADGDLVNSNNYYLQGYPTDRNGVPLTNTGNSGASLETINLAGATGAAKATSEMSIQAVLPAQATAGDSTAVPPVAAYTSSSDVEIYDSLGVAHTMTVKWTKMSDTKWTMTLYDPKLSSDMTGDATGAISSTTTGVTDVPANAGPPATSHGIAVDVEFTDQGLLKTPSVLALKITPDASNGTGAAISEIALNLGTAGKANGLSTYSNEDSDGKPAVDLKKVVQDGVTYGTYYSNTISKAGLVYANFTNGISYPIYQVPLAMFSNVNGLEAVSGTAYSATVKSGTPTYVTAGTGGSGGVSSGSVESSTVDTAAEFSKLIVSQQAYSAATQIISSNQEMFQNLISAKR”, the “soluble on expression in E. coli” value was “not soluble”.
With “SSQQIYGVKYGNVTFHVPSNQPLKEVLWKKQKDKVAELENSEFRAFSSFKNRVYLDTKSGSLTIYNLTSSDEDEYEMESPNITDSMKFFLYVGES” the “soluble on expression in E. coli” value was “soluble”.
In the case of “MGSDKIHHHHHHMKIHQLRALVAVTTAGSIKAAARTMHVTQPAISKAIQELENEFGVPLLERKPWGVVPTPEGDALLGRAQAVVRELERANEDMAHMKGLRDGRLVIGFTPIVAVTGFAEAYAAFRRHWPNVECELRELTFNLLTEQLRNRTLDLAFVAVTGPLSESVDIKAIRTFDTAFVTRENGRFAGATSLDALRDAEWIHADASDSFPTYIRDLHAHAGLPPPRCITRCTSYALFYSLLMTNDAIFSWTRLSLAETVFGQKLTPLPLPMSPPPLQLYRLTPPGLQLTRPASDFLAHVETAFASNQLTGDVQR”, the “soluble on expression in E. coli” value is reported as “not soluble”.
With “VMNRMATALGGDYFDFISMPDGREVVFIGDVTGHDIQSSVVMSLVYGFLHHCALTVDDPLTMVSQLNRFLVRFADHGTELDHHFSSTLFLGIIDPASLRLEYVNAGHVPPLVLRRNSLHRLASTSPPVGFFAEAEVATGCFGLERGDRLLLYTDGILDASNGTETFGAERLDAFLTATGGSYTRFMDELAAALRDFGAGDPPDDDCSAIVIDI” the “soluble on expression in E. coli” value was “not soluble”.
For “MKKKKLFLGTIISCVVLALSACGSSDNVVTSKVGNITEKELSKELRQKYGESTLYQMVLSKALLDKYKVSDEEAKKQVEEAKDKMGDNFKSTLEQVGLKNEDELKEKMKPEIAFEKAIKATVTEKDVKDNYKPEMKVSHILVKDEKTAKEVKEKVNNGEDFAALAKQYSEDTGSKEQGGEITGFAPGQTVKEFEEAAYKLDAGQVSEPVKTTYGYHIIKVTDKKELKPFDEVKDSIRKDIEQQRLQDTTGKWKQQVVNELLKDADIKVNDKEFKNTFEFLEKK”, the “soluble on expression in E. coli” value was “not soluble”.
For “MKIIDCRNMACPAPVVTTKRALEEAGGETVQVLVDPGAPRENVIRFAENRGFAVSEVEADNGFALTITSPGSAPVEPVRTVAGKGGKTVMLVASDRLGDGPEELGRLLMKNFIITLLDLAELPDRMLFVNTGVLLTTEGSEVLEALQSLGNRGVEVLSCGVCLDFFHRKEKLVAGSVTNMFTIAESLLGAGSVVRLLEHHHHHH”, the “soluble on expression in E. coli” value was “soluble”.
For “GPGSMPERMTAALAARLVASPLKYVLLDIDGVIWCGGHVIDRVPETLQYLRGQGKQIRFLSNNASFSREQLMQSLKAKGIEGVTVEECYNSAYTAALRLRQMLGKADVPGEEPLVHGNVFVIGEQGLHDELQQVLAPGFITYGVELHDAVRAGGYDTDALGSAWRVPCLPPPQKRLVVCNGKACRMVQAGTNSAEKISLSDLNAAAVVVGLDKHFNIVKLAYGSLVLQGPPKDLREESYTPPLFVATNEDPQLPVGRDGTMIPGAGSMVSALCTAVGKRPDAVCGKPHKDMANILFAAEGVTNPREECIMIGDRLTTDVAFGNAAGCQSMLVLSGAEGLADVEEAEKQGRTALVPKYVAESLACFLPL”, the “soluble on expression in E. coli” value was “soluble”.
With “MATDRENLLSDDYEETAAFCGCGYFRSFSFTRWRRGDDESRSRGGWSGCLQEERRGNWGSEKLKGLKEISEKIAGPKWKNFIRSFSSGRKKMRRDVDFTYDLKNYSLNFDDGGDGKDSSPERFVAPVVIKV” the “soluble on expression in E. coli” value was “not soluble”.
For “MTLPRFDQIRPKIEQHIREVKDFPKKGINFRDIMPLFTNPQLVNELCVVIADHVRHTVGHVDSVAGLEARGFLFGPQVAIQLGVPFVPIRKKGKLPGATIEASYVKEYGEDRVEIQEGAIKNGDIVFLIDDLLATGGTLRAATDLVVKAGGKVGEAFVLIELAPLNGRSKLPDVNLTTLISYDSA”, the “soluble on expression in E. coli” value was “not soluble”.
In the case of “MGGSHHHHHHGMASLAPGSSRVELFKRKNSTVPFEESNGTIRERVVHSFRIPTIVNVDGVMVAIADARYETSFDNSFIETAVKYSVDDGATWNTQIAIKNSRASSVSRVMDATVIVKGNKLYILVGSFNKTRNSWTQHRDGSDWEPLLVVGEVTKSAANGKTTATISWGKPVSLKPLFPAEFDGILTKEFIGGVGAAIVASNGNLVYPVQIADMGGRVFTKIMYSEDDGNTWKFAEGRSKFGCSEPAVLEWEGKLIINNRVDGNRRLVYESSDMGKTWVEALGTLSHVWTNSPTSNQQDCQSSFVAVTIEGKRVMLFTHPLNLKGRWMRDRLHLWMTDNQRIFDVGQISIGDENSGYSSVLYKDDKLYSLHEINTNDVYSLVFVRLIGELQLMKSVVRTWKEEDNHLASICTPVVPATPPSKGGCGAAVPTAGLVGFLSHSANGSVWEDVYRCVDANVANAERVPNGLKFNGVGGGAVWPVARQGQTRRYQFANYRFTLVATVTIDELPKGTSPLLGAGLEGPGDAKLLGLSYDKNRQWRPLYGAAPASPTGSWELHKKYHVVLTMADRQGSVYVDGQPLAGSGNTVVRGATLPDISHFYIGGPRSKGAPTDSRVTVTNVVLYNRRLNSSEIRTLFLSQDMIGTDGGAGTAA”, the “soluble on expression in E. coli” value is reported as “soluble”.
With “MLPVQILKDNAQEERGESARLSSFVGAIAIGDLVKSTLGPKGMDKILISGNPESAGGIKVTNDGATILKSIGVDNPAAKVLVDMSMTQDHEVGDGTTSVTVLAAELLKEAEKLVNQRIHPQTIISGYRRALGIAQESLKKSSIESGDNIRDDLLKIARTTLGSKILSQHKEHFAQLAVDAVLRLKGSGNLDAIQIIKKLGGSMNESYLDEGFLLEKLPGMFQPRRVEKAKILIANTPMDTDKVKVFGSRVRVDGVAKVAELEAAEKLKMKEKVDKILAHNCNVFINRQLIYNYPEQLFADAKVMAIEHADFEGIERLALVLGGEIVSTFDSPQTAQFGSCDLIEEIMIGEDRLLRFSGVKLGEACSVVLRGATQQILDESERSLHDALCVLVTHVKESKTVAGAGASEILMSSAIAVEAQKVAGKEALAVEAFGRALAQLPTIICDNAGLDSAELVTRLRAEHANGRHNMGIDIEKGEVADVTKLGVIESYNVKLCMVSSAAEATEQILRVDDIIKAAPRARAQDNRPC” the “soluble on expression in E. coli” value was “not soluble”.
With “MSTPFKMERGVKYRDAAKTSIIPVKNIDPNQDLLKKPEWMKIKLPASSAKIESIKNGMRRHGLHSVCEEASCPNLHECFNHGTATFMILGAICTRRCPFCDVAHGKPLPPDPEEPQKLAETIQDMKLKYVVITSVDRDDLPDRGAGHFSECVKAVRELNPNIKIEILVPDFRGRITQALEKLKDNPPDVFNHNLENVPRLYKEIRPGADYEWSLKLLREFKEIFPNIPTKSGLMVGLGETNEEILQVMQDLRDNGVTMLTLGQYLQPSRHHLPVARYVPPTEFDEFRDKANEMGFEHAACGPFVRSSYHADLQASGGLVKLEHHHHHH” the “soluble on expression in E. coli” value was “not soluble”.
In the case of “MGSDKIHHHHHHMLNWSHLPAIKPKYLAITQFIKQAIQNGDLLPGQRLPAERELATLLHVDRSTVTRALLDLAAVGILVKKRGSGTFVAQLPHVNQLANKVNWQAFLENTTATRHATYQRKLAKARTTATVPLIDAAANELPTNLIPQLGTLTLDWQGFLTAQQQEERTGYLPLMQTINRYHTARQQFTLDRQSLIITGGAQQALLLILNSLLQPGDAVAFVTPSYFSASAVFSAAGVRAYTIPTTTLGLDLTALETAIIKHRIKLLILNPTLQNPTGRILPLAERQAILALCQRYQVAIVEDDVFGWLVDRDIAVPPFKALAPDNVIYISSLSKLLGSNTRIGWIVAPQAIGERIRQVQKNLDLVPSLLAQVMVDHALNSPEFSLGVTQLTTQLAQRRQNVTAILRQLRPDWHFVTPLGGFYLWVTQADRNVFEHLLEQHLLVTPGPIYGADRSAFRFNFAGLDYRQQRLLIQRLS”, the “soluble on expression in E. coli” value is reported as “not soluble”.
For “DDRGDFALVAGDALPQFSVEMSDGGVLNTQSFSGKVGVIVFFHTDCPDCQKELPVIQKVYDTYKENPDVLLSCISRSESGSEVQAYWEKHSFSLPFSAQNDDAVFSLFASHTIPRILITDKEGIIRAVYTDDPLATYQELAKDIDAVL”, the “soluble on expression in E. coli” value was “soluble”.
In the case of “GPGSFIDPPSDQGMSDAFYQLLYFGAVDDGLQLTDFGRRMAVLPVDVCLARMLLMAPKHGCGADAAVVAAMLEAGNAFSRPPSRLAEAREAHARFDNADGDHVALFRVFHAYFKNQQNGKRFCYENYLRHQTLQQAVQVYKQLRRLMSQLMIPVQSTYIPEREYVDTVALRKAVLEGFFTQVAFLTPVAPITH”, the “soluble on expression in E. coli” value is reported as “not soluble”.
In the case of “MAAEGVRVEGDWSRLVETIRNLNLSKSELRMLNAQIAQIVAEGSKERFETEKSPEGERWEPLSPATLEARARRRTRRKDGTSGYRTKRGKLSKRAERIIASGRPLKDTGRLMRSIATKATAEAAVIGTNLVQAAIQQLGGKAGRGKKVEIPARPYLGVSSSEEADIMELINEFIRERIQ”, the “soluble on expression in E. coli” value is reported as “not soluble”.
